{"source": "patent US20240261333A1", "about": "“NOVEL TARGETS FOR ENHANCING ANTI-TUMOR IMMUNITY” (THE BROAD INSTITUTE, INC., priority 2021, published 2024)", "key": {"[1]": {"target": "CAT (human) (UniProt P04040)", "sequence (P04040 2-527 limits assumed)": "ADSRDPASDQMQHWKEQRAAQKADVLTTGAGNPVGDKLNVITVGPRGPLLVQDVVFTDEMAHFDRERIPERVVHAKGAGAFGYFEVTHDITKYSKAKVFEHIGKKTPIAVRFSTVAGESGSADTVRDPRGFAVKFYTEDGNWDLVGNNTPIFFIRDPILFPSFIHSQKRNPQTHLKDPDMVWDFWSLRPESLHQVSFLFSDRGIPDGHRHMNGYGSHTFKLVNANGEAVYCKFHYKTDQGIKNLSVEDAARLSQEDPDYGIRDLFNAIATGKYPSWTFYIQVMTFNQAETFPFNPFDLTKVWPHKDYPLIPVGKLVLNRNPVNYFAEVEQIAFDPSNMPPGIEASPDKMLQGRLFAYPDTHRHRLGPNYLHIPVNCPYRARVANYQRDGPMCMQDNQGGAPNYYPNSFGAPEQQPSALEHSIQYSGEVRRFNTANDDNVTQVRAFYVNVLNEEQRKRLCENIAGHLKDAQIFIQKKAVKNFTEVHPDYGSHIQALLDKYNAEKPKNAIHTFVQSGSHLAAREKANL", "experiment": "co-IP, IgG control, lysate of cells with C-FLAG B3GNT2; mass spectrometry"}, "[2]": {"target": "CSE1L (human) (UniProt P55060)", "experiment": "co-IP, IgG control, lysate of cells with C-FLAG B3GNT2; mass spectrometry"}, "[3]": {"target": "DDX5 (human) (UniProt P17844)", "sequence (P17844 whole entry)": "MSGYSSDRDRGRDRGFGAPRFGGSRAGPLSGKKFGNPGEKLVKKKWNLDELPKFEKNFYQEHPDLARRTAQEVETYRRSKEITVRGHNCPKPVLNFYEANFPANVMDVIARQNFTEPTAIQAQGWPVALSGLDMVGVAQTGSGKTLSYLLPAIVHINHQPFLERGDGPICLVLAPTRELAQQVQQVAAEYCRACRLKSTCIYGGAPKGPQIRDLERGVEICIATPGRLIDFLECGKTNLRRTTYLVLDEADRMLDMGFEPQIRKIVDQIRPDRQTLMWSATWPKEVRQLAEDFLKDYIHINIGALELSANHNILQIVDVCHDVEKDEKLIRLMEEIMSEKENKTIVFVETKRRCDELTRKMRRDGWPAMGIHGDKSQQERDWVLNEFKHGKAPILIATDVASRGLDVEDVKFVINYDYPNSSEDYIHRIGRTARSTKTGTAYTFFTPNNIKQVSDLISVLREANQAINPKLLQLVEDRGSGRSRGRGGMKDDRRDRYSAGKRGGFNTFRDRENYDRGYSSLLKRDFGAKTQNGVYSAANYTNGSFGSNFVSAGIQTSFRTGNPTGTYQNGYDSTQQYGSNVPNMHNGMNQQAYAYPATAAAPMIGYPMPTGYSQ", "experiment": "co-IP, IgG control, lysate of cells with C-FLAG B3GNT2; mass spectrometry"}, "[4]": {"target": "EIF5B (human) (UniProt O60841)", "experiment": "co-IP, IgG control, lysate of cells with C-FLAG B3GNT2; mass spectrometry"}, "[5]": {"target": "FAU (human) (UniProt P62861)", "experiment": "co-IP, IgG control, lysate of cells with C-FLAG B3GNT2; mass spectrometry"}, "[6]": {"target": "G3BP1 (human) (UniProt Q13283)", "sequence (Q13283 2-466 limits assumed)": "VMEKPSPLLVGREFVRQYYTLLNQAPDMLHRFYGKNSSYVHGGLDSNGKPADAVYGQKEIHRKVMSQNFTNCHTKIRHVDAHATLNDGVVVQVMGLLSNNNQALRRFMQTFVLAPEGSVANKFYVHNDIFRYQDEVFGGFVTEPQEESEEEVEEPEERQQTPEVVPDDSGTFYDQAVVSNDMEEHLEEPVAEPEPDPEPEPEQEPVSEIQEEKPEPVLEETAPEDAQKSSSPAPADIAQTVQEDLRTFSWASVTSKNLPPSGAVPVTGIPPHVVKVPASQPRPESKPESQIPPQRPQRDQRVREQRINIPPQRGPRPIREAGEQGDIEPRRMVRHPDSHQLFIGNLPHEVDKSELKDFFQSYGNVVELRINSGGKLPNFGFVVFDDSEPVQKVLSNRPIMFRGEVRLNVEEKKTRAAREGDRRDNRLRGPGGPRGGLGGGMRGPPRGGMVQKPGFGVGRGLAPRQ", "experiment": "co-IP, IgG control, lysate of cells with C-FLAG B3GNT2; mass spectrometry"}, "[7]": {"target": "GGCT (human) (UniProt O75223)", "sequence (O75223 whole entry)": "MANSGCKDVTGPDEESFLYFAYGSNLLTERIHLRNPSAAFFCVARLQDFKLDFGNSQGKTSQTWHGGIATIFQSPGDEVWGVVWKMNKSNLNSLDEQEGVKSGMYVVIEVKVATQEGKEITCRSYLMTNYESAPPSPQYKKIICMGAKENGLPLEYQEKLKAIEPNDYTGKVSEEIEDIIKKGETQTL", "experiment": "co-IP, IgG control, lysate of cells with C-FLAG B3GNT2; mass spectrometry"}, "[8]": {"target": "HADHB (human) (UniProt P55084)", "experiment": "co-IP, IgG control, lysate of cells with C-FLAG B3GNT2; mass spectrometry"}, "[9]": {"target": "HNRNPA2B1 (human) (UniProt P22626)", "sequence (P22626 other isoform, or with tags, fused parts or gaps limits assumed)": "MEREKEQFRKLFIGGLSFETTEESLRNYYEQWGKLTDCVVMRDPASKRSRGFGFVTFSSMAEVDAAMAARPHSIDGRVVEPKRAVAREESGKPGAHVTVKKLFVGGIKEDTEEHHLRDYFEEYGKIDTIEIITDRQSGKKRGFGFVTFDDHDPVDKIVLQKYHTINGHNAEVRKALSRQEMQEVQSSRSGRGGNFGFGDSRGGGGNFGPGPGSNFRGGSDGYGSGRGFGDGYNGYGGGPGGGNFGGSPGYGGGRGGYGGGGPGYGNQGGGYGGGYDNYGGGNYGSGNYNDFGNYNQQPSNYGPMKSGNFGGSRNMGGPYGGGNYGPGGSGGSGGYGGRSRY", "experiment": "co-IP, IgG control, lysate of cells with C-FLAG B3GNT2; mass spectrometry"}, "[10]": {"target": "KRT4 (human) (UniProt P19013)", "sequence (P19013 whole entry)": "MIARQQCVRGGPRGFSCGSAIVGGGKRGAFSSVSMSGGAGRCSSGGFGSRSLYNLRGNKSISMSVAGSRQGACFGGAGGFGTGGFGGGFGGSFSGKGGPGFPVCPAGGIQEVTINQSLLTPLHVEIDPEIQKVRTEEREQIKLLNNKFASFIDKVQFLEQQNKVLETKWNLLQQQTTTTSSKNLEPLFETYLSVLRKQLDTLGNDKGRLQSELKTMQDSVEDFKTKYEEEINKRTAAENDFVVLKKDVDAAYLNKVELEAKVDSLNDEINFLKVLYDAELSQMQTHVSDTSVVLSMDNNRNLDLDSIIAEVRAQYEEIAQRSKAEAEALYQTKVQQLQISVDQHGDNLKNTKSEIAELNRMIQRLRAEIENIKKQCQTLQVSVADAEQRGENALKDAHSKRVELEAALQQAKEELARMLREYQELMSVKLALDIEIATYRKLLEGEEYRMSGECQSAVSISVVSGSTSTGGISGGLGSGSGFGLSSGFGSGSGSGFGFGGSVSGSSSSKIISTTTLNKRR", "experiment": "co-IP, IgG control, lysate of cells with C-FLAG B3GNT2; mass spectrometry"}, "[11]": {"target": "KRT6B (human) (UniProt P04259)", "experiment": "co-IP, IgG control, lysate of cells with C-FLAG B3GNT2; mass spectrometry"}, "[12]": {"target": "LMNA (human) (UniProt P02545)", "experiment": "co-IP, IgG control, lysate of cells with C-FLAG B3GNT2; mass spectrometry"}, "[13]": {"target": "NUFIP2 (human) (UniProt Q7Z417)", "experiment": "co-IP, IgG control, lysate of cells with C-FLAG B3GNT2; mass spectrometry"}, "[14]": {"target": "PARP1 (human) (UniProt P09874)", "experiment": "co-IP, IgG control, lysate of cells with C-FLAG B3GNT2; mass spectrometry"}, "[15]": {"target": "PRRC2A (human) (UniProt P48634)", "sequence (P48634 whole entry)": "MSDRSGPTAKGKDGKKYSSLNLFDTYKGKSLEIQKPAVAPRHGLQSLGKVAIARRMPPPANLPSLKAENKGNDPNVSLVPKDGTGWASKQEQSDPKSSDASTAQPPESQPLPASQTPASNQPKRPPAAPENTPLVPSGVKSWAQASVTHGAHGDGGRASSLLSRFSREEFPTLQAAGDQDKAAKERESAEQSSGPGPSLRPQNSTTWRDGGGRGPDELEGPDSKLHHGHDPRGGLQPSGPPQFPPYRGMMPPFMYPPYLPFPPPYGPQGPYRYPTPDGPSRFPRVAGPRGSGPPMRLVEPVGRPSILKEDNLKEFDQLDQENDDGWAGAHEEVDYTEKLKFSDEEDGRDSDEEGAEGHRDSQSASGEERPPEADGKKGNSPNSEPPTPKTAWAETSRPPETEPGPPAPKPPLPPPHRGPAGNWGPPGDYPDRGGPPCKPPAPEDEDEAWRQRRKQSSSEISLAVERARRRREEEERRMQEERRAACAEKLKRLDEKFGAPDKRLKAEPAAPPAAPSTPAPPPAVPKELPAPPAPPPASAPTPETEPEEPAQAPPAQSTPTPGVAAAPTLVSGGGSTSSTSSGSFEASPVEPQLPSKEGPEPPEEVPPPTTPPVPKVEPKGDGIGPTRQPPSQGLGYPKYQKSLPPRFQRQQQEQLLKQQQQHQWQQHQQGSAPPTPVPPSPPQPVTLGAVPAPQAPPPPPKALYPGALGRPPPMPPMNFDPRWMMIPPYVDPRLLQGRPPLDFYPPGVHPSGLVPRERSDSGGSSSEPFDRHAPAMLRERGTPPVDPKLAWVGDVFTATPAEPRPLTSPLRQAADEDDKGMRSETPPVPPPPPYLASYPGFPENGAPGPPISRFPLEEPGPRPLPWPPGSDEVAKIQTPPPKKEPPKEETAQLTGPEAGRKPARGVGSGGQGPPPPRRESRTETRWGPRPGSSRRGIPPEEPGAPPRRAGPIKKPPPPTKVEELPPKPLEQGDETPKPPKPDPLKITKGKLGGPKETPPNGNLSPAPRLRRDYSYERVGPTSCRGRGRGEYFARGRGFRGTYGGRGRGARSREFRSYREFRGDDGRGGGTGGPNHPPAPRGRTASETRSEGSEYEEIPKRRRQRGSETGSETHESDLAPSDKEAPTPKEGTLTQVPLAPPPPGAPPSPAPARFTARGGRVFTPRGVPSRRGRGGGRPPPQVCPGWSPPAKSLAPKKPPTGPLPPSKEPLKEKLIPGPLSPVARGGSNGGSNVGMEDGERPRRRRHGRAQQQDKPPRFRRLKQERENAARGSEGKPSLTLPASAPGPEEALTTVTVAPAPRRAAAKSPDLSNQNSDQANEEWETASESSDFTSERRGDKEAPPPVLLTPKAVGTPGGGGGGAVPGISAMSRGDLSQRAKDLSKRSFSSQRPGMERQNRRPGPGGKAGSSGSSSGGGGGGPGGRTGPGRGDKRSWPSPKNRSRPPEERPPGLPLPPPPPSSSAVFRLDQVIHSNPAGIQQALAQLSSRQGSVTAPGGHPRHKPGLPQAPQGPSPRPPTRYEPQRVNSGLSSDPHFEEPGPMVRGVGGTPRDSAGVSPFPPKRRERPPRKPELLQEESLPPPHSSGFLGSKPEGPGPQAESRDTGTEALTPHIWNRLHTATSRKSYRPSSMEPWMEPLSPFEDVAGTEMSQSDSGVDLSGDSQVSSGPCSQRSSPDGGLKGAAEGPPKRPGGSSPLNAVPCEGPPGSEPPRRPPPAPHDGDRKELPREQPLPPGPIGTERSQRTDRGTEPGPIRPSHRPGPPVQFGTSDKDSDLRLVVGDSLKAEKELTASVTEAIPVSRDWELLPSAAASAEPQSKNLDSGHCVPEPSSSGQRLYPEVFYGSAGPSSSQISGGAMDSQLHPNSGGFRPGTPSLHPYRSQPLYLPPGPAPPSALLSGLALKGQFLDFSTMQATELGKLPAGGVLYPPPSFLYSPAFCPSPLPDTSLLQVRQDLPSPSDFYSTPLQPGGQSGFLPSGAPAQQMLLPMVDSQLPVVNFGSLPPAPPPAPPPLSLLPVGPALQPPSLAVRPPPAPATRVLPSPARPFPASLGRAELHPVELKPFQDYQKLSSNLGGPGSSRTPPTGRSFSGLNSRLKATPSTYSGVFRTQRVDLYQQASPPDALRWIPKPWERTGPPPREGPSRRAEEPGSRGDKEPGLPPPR", "experiment": "co-IP, IgG control, lysate of cells with C-FLAG B3GNT2; mass spectrometry"}, "[16]": {"target": "PUM1 (human) (UniProt Q14671)", "experiment": "co-IP, IgG control, lysate of cells with C-FLAG B3GNT2; mass spectrometry"}, "[17]": {"target": "RBM39 (human) (UniProt Q14498)", "experiment": "co-IP, IgG control, lysate of cells with C-FLAG B3GNT2; mass spectrometry"}, "[18]": {"target": "RPL18 (human) (UniProt Q07020)", "experiment": "co-IP, IgG control, lysate of cells with C-FLAG B3GNT2; mass spectrometry"}, "[19]": {"target": "RPS3 (human) (UniProt P23396)", "experiment": "co-IP, IgG control, lysate of cells with C-FLAG B3GNT2; mass spectrometry"}, "[20]": {"target": "UBAP2L (human) (UniProt Q14157)", "experiment": "co-IP, IgG control, lysate of cells with C-FLAG B3GNT2; mass spectrometry"}, "[21]": {"target": "CCT3 (human) (UniProt P49368)", "experiment": "control IP with IgG, lysate of cells with C-FLAG B3GNT2, mass spectrometry"}, "[22]": {"target": "DHX9 (human) (UniProt Q08211)", "experiment": "control IP with IgG, lysate of cells with C-FLAG B3GNT2, mass spectrometry"}, "[23]": {"target": "GBF1 (human) (UniProt Q92538)", "experiment": "control IP with IgG, lysate of cells with C-FLAG B3GNT2, mass spectrometry"}, "[24]": {"target": "PKM (human) (UniProt P14618)", "experiment": "control IP with IgG, lysate of cells with C-FLAG B3GNT2, mass spectrometry"}, "[25]": {"target": "RPL7 (human) (UniProt P18124)", "experiment": "control IP with IgG, lysate of cells with C-FLAG B3GNT2, mass spectrometry"}, "[26]": {"target": "RPS14 (human) (UniProt P62263)", "experiment": "control IP with IgG, lysate of cells with C-FLAG B3GNT2, mass spectrometry"}, "[27]": {"target": "YBX1 (human) (UniProt P67809)", "experiment": "control IP with IgG, lysate of cells with C-FLAG B3GNT2, mass spectrometry"}, "[28]": {"target": "T1, YTHDF2 (human) (UniProt Q9Y5A9)", "T1 sequence (looked up)": "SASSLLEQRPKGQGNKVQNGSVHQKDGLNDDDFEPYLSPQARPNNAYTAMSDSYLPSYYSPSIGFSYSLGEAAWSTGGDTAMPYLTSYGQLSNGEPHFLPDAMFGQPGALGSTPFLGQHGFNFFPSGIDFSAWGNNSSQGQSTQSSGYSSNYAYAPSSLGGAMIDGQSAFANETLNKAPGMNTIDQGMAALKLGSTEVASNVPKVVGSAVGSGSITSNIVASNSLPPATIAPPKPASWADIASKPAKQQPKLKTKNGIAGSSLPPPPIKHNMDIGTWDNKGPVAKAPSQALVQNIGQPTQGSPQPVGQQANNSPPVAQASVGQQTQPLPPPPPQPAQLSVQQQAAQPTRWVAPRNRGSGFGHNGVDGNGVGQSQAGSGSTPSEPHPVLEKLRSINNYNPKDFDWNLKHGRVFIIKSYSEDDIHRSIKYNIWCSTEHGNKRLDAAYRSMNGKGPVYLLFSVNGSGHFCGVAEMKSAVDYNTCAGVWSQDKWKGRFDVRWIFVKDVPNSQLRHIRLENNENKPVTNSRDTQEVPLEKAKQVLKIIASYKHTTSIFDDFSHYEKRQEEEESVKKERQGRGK", "experiment": "control IP with IgG, lysate of cells with C-FLAG B3GNT2, mass spectrometry"}}, "data": [{"substance": "IgG control (Millipore Sigma 12-371) (antibody)", "values": [{"measurement": "co-IP mass spectrometry count", "setting": "[1]", "result": 3}, {"measurement": "co-IP mass spectrometry count", "setting": "[2]", "result": 0}, {"measurement": "co-IP mass spectrometry count", "setting": "[3]", "result": 16}, {"measurement": "co-IP mass spectrometry count", "setting": "[4]", "result": 0}, {"measurement": "co-IP mass spectrometry count", "setting": "[5]", "result": 5}, {"measurement": "co-IP mass spectrometry count", "setting": "[6]", "result": 25}, {"measurement": "co-IP mass spectrometry count", "setting": "[7]", "result": 0}, {"measurement": "co-IP mass spectrometry count", "setting": "[8]", "result": 0}, {"measurement": "co-IP mass spectrometry count", "setting": "[9]", "result": 9}, {"measurement": "co-IP mass spectrometry count", "setting": "[10]", "result": 0}, {"measurement": "co-IP mass spectrometry count", "setting": "[11]", "result": 295}, {"measurement": "co-IP mass spectrometry count", "setting": "[12]", "result": 18}, {"measurement": "co-IP mass spectrometry count", "setting": "[13]", "result": 4}, {"measurement": "co-IP mass spectrometry count", "setting": "[14]", "result": 0}, {"measurement": "co-IP mass spectrometry count", "setting": "[15]", "result": 3}, {"measurement": "co-IP mass spectrometry count", "setting": "[16]", "result": 0}, {"measurement": "co-IP mass spectrometry count", "setting": "[17]", "result": 3}, {"measurement": "co-IP mass spectrometry count", "setting": "[18]", "result": 7}, {"measurement": "co-IP mass spectrometry count", "setting": "[19]", "result": 17}, {"measurement": "co-IP mass spectrometry count", "setting": "[20]", "result": 15}, {"measurement": "co-IP mass spectrometry count", "setting": "[21]", "result": 0}, {"measurement": "co-IP mass spectrometry count", "setting": "[22]", "result": 0}, {"measurement": "co-IP mass spectrometry count", "setting": "[23]", "result": 0}, {"measurement": "co-IP mass spectrometry count", "setting": "[24]", "result": 2}, {"measurement": "co-IP mass spectrometry count", "setting": "[25]", "result": 3}, {"measurement": "co-IP mass spectrometry count", "setting": "[26]", "result": 10}, {"measurement": "co-IP mass spectrometry count", "setting": "[27]", "result": 5}, {"measurement": "co-IP mass spectrometry count", "setting": "[28]", "result": 2}]}]}
